Laboratory results from patent US8673856B2 (Anygen Co., Ltd., priority 2006, dated 2014).
No end group written: not given here.

What was measured:
[1] = target: T1, human N-type calcium channel (Homo sapiens, UniProt Q00975); type: cell-based
T1 construct: expressed in transfected cells; host or cells: HEK 293 (human embryonic kidney) cells

[2] = target: T1, human N-type calcium channel; type: cell-based; remark: listed apart in the source

Substance: CKGTGKSCSRLMYNCCTGSCRSGKC-NH2 (CKGTGKSCSRLMYNCCTGSCRSGKC-NH2; ends and bridges not checked) [FVIA[I11L, A12M], FVIA with Ile11 and Ala12 mutated to Leu and Met]
- Reversibility [1]: significantly reduced reversibility
- Calcium channel blocking activity [2]: calcium channel blocking activity similar to FVIA
